Article PMC5442325

Key:
[1] = biological target: Deinococcus radiodurans RecA K83R mutant protein (Deinococcus radiodurans) (UniProt P42443)
[2] = biological target: Deinococcus radiodurans RecA protein (wild type) (Deinococcus radiodurans) (UniProt P42443)

B1: Deinococcus radiodurans RecN protein (wild type) (natural protein)
chain: MTRKARTPKAAPVPEAVAVVEPPPPDAAPTGPRLSRLEIRNLATITQLELELGGGFCAFTGETGAGKSIIVDALGLLLGGRANHDLIRSGEKELLVTGFWGDGDESEADSASRRLSSAGRGAARLSGEVVSVRELQEWAQGRLTIHWQHSAVSLLSPANQRGLLDRRVTKEAQAYAAAHAAWREAVSRLERLQASQRERARQIDLLAFQVQEISEVSPDPGEEEGLNTELSRLSNLHTIAQAAAGGVELLSDGDLNAAGLIGEAVRALNAGAKYDETVMQLQNELRAALESVQAIAGELRDVAEGSAADPEALDRVEARLSALSKLKNKYGPTLEDVVEFGAQAAEELAGLEEDERDAGSLQADVDALHAELLKVGQALDAAREREAEPLVDSLLAVIRELGMPHARMEFALSALAEPAAYGLSDVLLRFSANPGEELGPLSDVASGGELSRVMLAVSTVLGADTPSVVFDEVDAGIGGAAAIAVAEQLSRLADTRQVLVVTHLAQIAARAHHHYKVEKQVEDGRTVSHVRLLTGDERLEEIARMLSGNTSEAALEHARELLAG
steady-state RecN ATP hydrolysis rate, order of addition RecA K83R+DNA then RecN (reaction 5; 2 μM RecN, 2 μM RecA K83R, 50 μM duplex DNA, buffer N) [1]: 56.3 µM/min | steady-state RecN ATP hydrolysis rate, order of addition RecN+DNA then RecA K83R (reaction 3; 2 μM RecN, 2 μM RecA K83R, 50 μM duplex DNA, buffer N) [1]: 53.4 µM/min | steady-state RecN ATP hydrolysis rate, order of addition RecN+RecA K83R then DNA (reaction 4; 2 μM RecN, 2 μM RecA K83R, 50 μM duplex DNA, buffer N) [1]: 47.5 µM/min | nicked circular duplex product of RecA-mediated DNA three-strand exchange under dilute conditions (0.4 μM RecA, 500 nM RecN, 45 min) [2]: > 3 fold
